Laboratory results taken from US20130303393A1 (RESEARCH DEVELOPMENT FOUNDATION, published 2013).

Target: PA-63 (Bacillus anthracis, UniProt P13423 197-764)
Sequence (P13423 197-764 limits assumed): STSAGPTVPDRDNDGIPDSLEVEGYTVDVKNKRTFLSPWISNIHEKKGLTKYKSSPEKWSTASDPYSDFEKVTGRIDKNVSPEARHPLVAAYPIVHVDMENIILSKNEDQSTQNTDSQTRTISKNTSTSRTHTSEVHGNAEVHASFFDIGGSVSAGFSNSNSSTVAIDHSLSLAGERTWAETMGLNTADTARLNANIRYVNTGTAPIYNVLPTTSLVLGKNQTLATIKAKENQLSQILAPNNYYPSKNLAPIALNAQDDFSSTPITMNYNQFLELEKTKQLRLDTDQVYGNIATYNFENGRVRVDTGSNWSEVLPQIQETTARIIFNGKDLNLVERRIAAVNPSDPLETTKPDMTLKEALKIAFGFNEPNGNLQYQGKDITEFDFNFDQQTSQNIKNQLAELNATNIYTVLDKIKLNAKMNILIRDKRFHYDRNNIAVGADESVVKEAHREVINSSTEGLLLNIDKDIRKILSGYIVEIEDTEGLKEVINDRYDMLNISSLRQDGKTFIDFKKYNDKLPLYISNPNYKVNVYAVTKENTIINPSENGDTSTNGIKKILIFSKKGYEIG

B1: YMB2 IgG (antibody, V domains shown)
VH: EVQLQQSGAELVKPGASVKLSCTASGFNIKDTYMHWVKQRPEQGLEWIGRIDPENGNTKYDPKFQGKATITADTSSNTAYLQLSSLTSEDTAVYYCARFLITTGYFDYWGQGTTLTVSS
VL: DIVLTQSHKFMSTSVGDRVSITCKASQDVGTAVAWYQQKPGQSPKLLIYWASTRHTGVPDRFTGSGSGTDFTLTISNVQSEDLADYFCQQYSSYPLTFGAGTKLEIKR
For B1, the Kd was 437 nM, the koff was 0.014 s⁻¹ and the kon was 32000 M⁻¹ s⁻¹.

B2: YMF10 IgG (antibody, V domains shown)
VH: EVQLQQSGAELVRSGASVKLSCTASGFNIKDYYMHWVKQRPEQGLEWIGWIDPENGDTEYAPKFQGKATMSADTSSNTAYLQLSSLTSEDTAVYYCNAGTPFEGLRRADYWGQGTTLTVSS
VL: DIVMTQSHKFMSTSVGDRVSITCKASQDVGTAVAWYQQKPGQSPKLLIYWASTRHTGVPDRFTGSGSGTDFTLTISNVQSEDLADYFCQQYSSYPLTFGAGTKLELNR
B2 gave a Kd of 31 nM, a koff of 0.015 s⁻¹ and a kon of 490000 M⁻¹ s⁻¹.

B3: YMD1 IgG (antibody, V domains shown)
VH: EVQLVESGAELVRSGASVKLSCTASGFNIKDYYMHWVKQRPEQGLEWIGWIDPENGDTEYAPKFQGKATMTADTSSNTAYLQLSSLTSEDTAVYYCNAGTPFEGLRKADYWGQGTTLTVSS
VL: DIVMTQSHKLMSTSVGDRVSITCKASQDVGTAVAWYQQKPGQSPRLLIYWASTRHTGVPDRFTGSGSGTDFTLTITNVQSEDLADYFCQQYSSYPYTFGGGTKLEIKR
B3 was tested, and the Kd was 55 nM, the koff was 0.019 s⁻¹ and the kon was 350000 M⁻¹ s⁻¹.
